The results in this text go back to US20210214434A1.

pIC50, pKd: −log10 of the molar value.

Test [1] concerns the target Fc receptors on the surface of the effector cells. Kind of test: cell-based or functional assay.
In test [2] the target is human CD64 receptor expressed by Jurkat cells (Jurkat-CD64) (human) (UniProt P12314). Kind of test: cell-based or functional assay.
For a further test, the target named is CD32b (UniProt P31994). Description: competition assay, protocol and competitor for CD32b not described.
For test [3], the target named is HisTag hCD16aV receptor (R&D System) (human) (UniProt P08637). Kind of test: BLI (Octet), HisTag hCD16aV on anti-Penta-HIS biosensors, 1/1 model; SD 4.0. For orientation: In BLI a coated tip is dipped into the sample, and binding shifts an interference pattern.
Test [4] has as its target HisTag hCD32aH receptor (PX therapeutics) (human) (UniProt P12318). Description: BLI (Octet), HisTag hCD32aH on anti-Penta-HIS biosensors, 1/1 model; SD 114.3.
Test [5] addresses HisTag hCD16aV receptor (R&D System) (human) (UniProt P08637). Description: BLI (Octet), HisTag hCD16aV on anti-Penta-HIS biosensors, 1/1 model; SD 103.9.
For test [6], the target named is biotinylated human FcRn receptor (hFcRn), immobilized on Streptavidin Biosensors (human) (UniProt P55899). Kind of test: BLI (Octet), biotinylated hFcRn on streptavidin biosensors, pH 6, 1/1 model; SD 1.94.
For test [7], the target named is human CD32aH receptor on transfected HEK cells (HEK-CD32) (human) (UniProt P12318). Kind of test: flow cytometry competition on HEK-CD32 cells, displacement of Rituxan-A488 (30 µg/ml).
Test [8] concerns the target human CD32aR receptor on transfected HEK cells (HEK-CD32) (human) (UniProt P12318). Described as above.
In test [9] the target is human CD64 receptor expressed by Jurkat cells (Jurkat-CD64) (human) (UniProt P12314). Description: flow cytometry competition on Jurkat-CD64 cells, displacement of Rituxan-A488 (25 µg/ml). (In general: A flow cytometer gives signals particle by particle.)
The target of test [10] is human CD16aH receptor on transfected Jurkat cells (Jurkat-CD16aH) (human) (UniProt P08637). Description: flow cytometry competition on Jurkat-CD16aH cells, displacement of mAb 3G8-PE (0.5 µg/ml).
For test [11], the target named is human FcRn receptor expressed by Jurkat cells (Jurkat-FcRn) (human) (UniProt P55899). Description: flow cytometry competition on Jurkat-FcRn cells, displacement of Rituxan-A488 (25 µg/ml), pH 6.
human FcRn receptor expressed by Jurkat cells (Jurkat-FcRn) (human), sequence (P55899 24-365, chain 1 of 2): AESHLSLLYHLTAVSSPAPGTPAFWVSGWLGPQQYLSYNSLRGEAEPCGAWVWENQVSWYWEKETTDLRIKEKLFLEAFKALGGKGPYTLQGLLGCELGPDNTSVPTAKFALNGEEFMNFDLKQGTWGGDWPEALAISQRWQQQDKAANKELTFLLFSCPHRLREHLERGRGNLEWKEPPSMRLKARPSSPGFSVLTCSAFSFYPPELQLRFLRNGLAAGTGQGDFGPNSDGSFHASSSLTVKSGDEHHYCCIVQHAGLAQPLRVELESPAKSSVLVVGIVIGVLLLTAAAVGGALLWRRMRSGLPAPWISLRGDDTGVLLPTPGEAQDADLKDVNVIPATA
human FcRn receptor expressed by Jurkat cells (Jurkat-FcRn) (human), sequence (P61769 21-119, chain 2 of 2, further chain): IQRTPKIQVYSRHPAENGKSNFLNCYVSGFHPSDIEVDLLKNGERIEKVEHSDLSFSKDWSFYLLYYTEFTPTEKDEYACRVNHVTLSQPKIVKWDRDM

human CD64 receptor expressed by Jurkat cells (Jurkat-CD64) (human), sequence (P12314 16-374): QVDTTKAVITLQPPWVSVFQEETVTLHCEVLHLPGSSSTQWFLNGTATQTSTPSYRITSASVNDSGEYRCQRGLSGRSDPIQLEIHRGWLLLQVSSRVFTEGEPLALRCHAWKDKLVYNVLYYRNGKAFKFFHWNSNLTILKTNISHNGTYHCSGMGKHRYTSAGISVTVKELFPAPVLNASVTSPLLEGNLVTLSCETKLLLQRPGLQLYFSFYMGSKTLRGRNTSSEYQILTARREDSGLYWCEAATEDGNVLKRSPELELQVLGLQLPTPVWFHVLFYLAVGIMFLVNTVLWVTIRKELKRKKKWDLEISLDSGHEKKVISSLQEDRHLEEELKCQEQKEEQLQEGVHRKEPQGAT
HisTag hCD16aV receptor (R&D System) (human), sequence (P08637 17-208 F176V limits assumed): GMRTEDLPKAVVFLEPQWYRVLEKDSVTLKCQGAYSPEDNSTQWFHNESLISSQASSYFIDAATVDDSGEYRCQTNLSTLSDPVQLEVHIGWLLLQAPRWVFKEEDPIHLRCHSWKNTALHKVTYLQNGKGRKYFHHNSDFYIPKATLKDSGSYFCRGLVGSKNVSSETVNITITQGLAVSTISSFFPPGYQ
human CD32aH receptor on transfected HEK cells (HEK-CD32) (human), sequence (P12318 34-317): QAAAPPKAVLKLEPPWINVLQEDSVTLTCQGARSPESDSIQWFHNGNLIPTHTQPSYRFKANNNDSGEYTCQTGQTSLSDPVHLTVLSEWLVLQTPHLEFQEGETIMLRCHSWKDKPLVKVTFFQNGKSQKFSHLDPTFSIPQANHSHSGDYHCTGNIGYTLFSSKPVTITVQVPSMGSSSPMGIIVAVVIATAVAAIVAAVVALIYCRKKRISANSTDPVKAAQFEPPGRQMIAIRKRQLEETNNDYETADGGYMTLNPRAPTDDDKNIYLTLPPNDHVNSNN
human CD32aR receptor on transfected HEK cells (HEK-CD32) (human), sequence (P12318 34-317 H167R limits assumed): as the sequence (P12318 34-317) above, with H134R counted along it
HisTag hCD32aH receptor (PX therapeutics) (human), sequence (P12318 34-217 limits assumed): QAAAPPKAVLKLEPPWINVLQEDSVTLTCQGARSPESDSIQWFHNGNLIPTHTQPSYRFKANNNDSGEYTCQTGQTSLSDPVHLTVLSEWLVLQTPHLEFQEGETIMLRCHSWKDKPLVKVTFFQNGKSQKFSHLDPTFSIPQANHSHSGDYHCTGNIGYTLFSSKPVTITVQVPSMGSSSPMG
biotinylated human FcRn receptor (hFcRn), immobilized on Streptavidin Biosensors (human), sequence (P55899 24-297 limits assumed, chain 1 of 2): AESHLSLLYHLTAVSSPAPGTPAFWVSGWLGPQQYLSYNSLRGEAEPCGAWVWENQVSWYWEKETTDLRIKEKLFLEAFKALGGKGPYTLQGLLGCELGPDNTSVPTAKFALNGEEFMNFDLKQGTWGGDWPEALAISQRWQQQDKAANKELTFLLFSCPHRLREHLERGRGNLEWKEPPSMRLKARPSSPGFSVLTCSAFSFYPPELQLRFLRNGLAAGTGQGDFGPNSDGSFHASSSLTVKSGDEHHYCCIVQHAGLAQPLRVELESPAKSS
biotinylated human FcRn receptor (hFcRn), immobilized on Streptavidin Biosensors (human), sequence (P61769 21-119 limits assumed, chain 2 of 2, further chain): as the sequence (P61769 21-119, chain 2 of 2, further chain) above
CD32b, sequence (P31994 43-310 limits assumed): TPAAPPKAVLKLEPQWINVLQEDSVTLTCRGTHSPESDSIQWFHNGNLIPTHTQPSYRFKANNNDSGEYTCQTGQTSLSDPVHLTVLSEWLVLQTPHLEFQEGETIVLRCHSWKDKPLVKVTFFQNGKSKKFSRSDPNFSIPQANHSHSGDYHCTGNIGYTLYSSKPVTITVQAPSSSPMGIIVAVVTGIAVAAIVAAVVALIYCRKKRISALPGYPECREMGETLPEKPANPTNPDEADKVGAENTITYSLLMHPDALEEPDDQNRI
human CD16aH receptor on transfected Jurkat cells (Jurkat-CD16aH) (human), sequence (P08637 17-254): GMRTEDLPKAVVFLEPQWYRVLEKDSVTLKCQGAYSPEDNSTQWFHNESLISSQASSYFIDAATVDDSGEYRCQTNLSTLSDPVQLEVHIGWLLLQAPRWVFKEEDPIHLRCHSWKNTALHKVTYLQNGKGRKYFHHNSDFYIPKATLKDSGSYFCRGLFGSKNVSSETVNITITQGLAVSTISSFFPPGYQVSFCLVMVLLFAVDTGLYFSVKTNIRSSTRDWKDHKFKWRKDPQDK

In test [1], “A3A-184EY_CHO (Y296W/K334N/P352S/A378V/V397M/N434Y), Fc variant produced in CHO cells (from UniProt P0DOX5 223-449)” registered an Inhibition of the lysis of the red blood cells medited by the anti-D AD1 (IC 25%, nM) of 7.6 nM and an Inhibition of the lysis of the red blood cells medited by the anti-D AD1 (IC 50%, nM) of 56 nM.
On to “A3A-184AY_CHO (K334N/P352S/A378V/V397M/N434Y), Fc variant produced in CHO cells (from UniProt P0DOX5 223-449)”, for which, in test [1], the Inhibition of the lysis of the red blood cells medited by the anti-D AD1 (IC 25%, nM) was determined as 13.5 nM and the Inhibition of the lysis of the red blood cells medited by the anti-D AD1 (IC 50%, nM) was determined as 97 nM.
As to “IVIg (intravenous immunoglobulin, polyvalent immunoglobulins from pools of human plasma donations) (antibody)”, the Inhibition of the lysis of the red blood cells medited by the anti-D AD1 (IC 25%, nM) in test [1] came to 59.6 nM. The Inhibition of the lysis of the red blood cells medited by the anti-D AD1 (IC 50%, nM) in [1] came to 351 nM. For the same substance, the Inhibition of the secretion of IL-2 of the Jurkat cells transfected with CD64 (IC 25%, nM) in test [2] is 1110 nM. In addition, the Inhibition of the secretion of IL-2 of the Jurkat cells transfected with CD64 (IC 50%, nM) in test [2] is < 1950 nM. The pIC50 was 6.12 with CD32b; 6.17 in test [7]; 5.88 in test [8]; 6.06 in test [9]; 5.77 in [10]; 5.87 in test [11]. In addition, the pKd in test [3] was 6.18; in test [4] it was 6.36; in test [5], 6.47; in test [6], 7.46.
For the substance “Fc MST-HN fragment containing the mutations M252Y/S254T/T256E/H433K/N434F, produced in HEK-293 cells (from UniProt P01857 104-330)”, in test [1], the Inhibition of the lysis of the red blood cells medited by the anti-D AD1 (IC 25%, nM) was determined as 190 nM and the Inhibition of the lysis of the red blood cells medited by the anti-D AD1 (IC 50%, nM) came to 441 nM.

The term pIC50 denotes the negative decadic logarithm of the IC50, by convention in mol/L. In general, pKd refers to the negative decadic logarithm of the Kd, by convention in mol/L. A high value points to a low Kd.
